# Experimental data from patent US20180171001A1.
# Columns and labels:
# [1] = target: Env of HIV-1 strain YU2.DG (HIV-1)
# [2] = target: Tro11 (Human immunodeficiency virus 1)
# [3] = target: SC4226618 (Human immunodeficiency virus 1)
substance,measurement,setting,value
chimeric IgG: 8ANC195 HC paired with the LC from 3BNC117 (antibody),"IC50 (fold change over 8ANC195 IgG), pseudovirus neutralization [panel B]",[1],12 fold
same,"IC50 (fold change over 8ANC195 IgG), pseudovirus neutralization [panel B]",[2],17 fold
same,"IC50 (fold change over 8ANC195 IgG), pseudovirus neutralization [panel B]",[3],32 fold
